In patent US11839630B2, “CAR-T cells targeting IL-1RAP and their use” (ETABLISSEMENT FRANCAIS DU SANG, priority 2017, dated 2023):

Tests used:
[1] = target: T1, IL-1RAP recombinant protein (Homo sapiens, UniProt Q9NPH3); assay: ELISA against recombinant IL-1RAP protein; assay type: binding; settings: BSA negative control
T1 construct: recombinant fusion protein consisting of the extra cellular part of IL-1RAP (NM_002182.2, NCBI) and the Fc-part of human IgG1; purchased R&D Systems
T1 sequence (Q9NPH3 21-367 limits assumed): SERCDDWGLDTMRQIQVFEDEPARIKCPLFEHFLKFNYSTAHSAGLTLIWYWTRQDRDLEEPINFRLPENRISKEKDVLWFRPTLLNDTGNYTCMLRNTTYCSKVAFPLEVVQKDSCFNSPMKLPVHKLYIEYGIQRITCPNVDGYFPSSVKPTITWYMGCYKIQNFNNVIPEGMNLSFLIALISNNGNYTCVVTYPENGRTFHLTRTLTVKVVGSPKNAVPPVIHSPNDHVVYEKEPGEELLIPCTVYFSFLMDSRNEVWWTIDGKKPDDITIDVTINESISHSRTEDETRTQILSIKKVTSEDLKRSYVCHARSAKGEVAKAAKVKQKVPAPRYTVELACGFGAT
Text: FIG. 2: recognition of IL-1RAP recombinant protein with #E3C3 mAb by the ELISA technique (b). BSA is the negative control (a).
Anti-human Fc antibody was coated on a bottom of a plastic ELISA plate.

[2] = test system: IL-1RAP-positive (KU812) cell line; assay: FACS screening of hybridoma subclones; assay type: binding, human; settings: 5 monoclonal antibody subclones
Text: Briefly, BALB/c mice (5 weeks, Charles River) were immunized either by foot pad (n=3) or intraperitoneally (n=5) with a recombinant fusion protein consisting of the extra cellular part of IL-1RAP (NM_002182.2, NCBI) and the Fc-part of human IgG1 (R&D Systems, Lille, France). Lymph nodes or spleens cells and blood samples were harvested and cells were fused with the mouse myeloma cell line, then screened by FACS analysis (Becton Dickinson), against IL-1RAP-positive (KU812) and −negative (Raji, KG1) cell lines.
Screening of hybridoma allowed to select 5 monoclonal antibodies subclones that discriminate IL-1RAP positive (KU812 or KG-1 respectively AML or Phi^+p^210 CML) from negative cell lines (Tom-1, NALM-20, Jurkat or Raji, respectively Phi+^p190 B-ALL, Phi-B-ALL, T-ALL or Burkitt's lymphoma).
Molecular characterization was performed by Sanger sequencing of cloned PCR products amplification obtained with degenerated primers specific of the FR1 and constant regions of the heavy and light chains according to the protocol of Wang. Z., et al (J. Immunol. Methods, 2000; 233, pp 167-77). Identification of V-D-J-C gene rearrangement and CDR3 region was obtained after alignment of consensus nucleotide sequences against the IMGT® database using V-QUEST online tool according to Brochet X., et al. (Nucleic Acids Res., 2008, 36, pp 503-8).

[3] = test system: HMEC-1 endothelial cell line; assay: Staining of HMEC-1 dermal endothelial cell line; assay type: binding, human; settings: flow cytometry staining
Text: FIG. 22: (A) Tissue microarray. Representative #A3C3 staining of an US Food and Drug Administration standard frozen tissue array, including 90 tissue cores (30 organs) of 3 individual donors per organ (US Biomax, Rockville, MD, USA). Immunostaining was detected using the UltraView Universal DAB Detection Kit (Ventana, USA). Images were acquired and analyzed with NDP.view 2.0 software. […] (Scale bars, 100 μm.) High IL-1RAP (KU812)— or negative (Raji)-expressing cell lines were respectively used as positive or negative controls. (B) IL-1RAP R&D (red) or #A3C3 (blue) staining of HMEC-1 dermal endothelial cell line. Isotype IgG1 (gray) is depicted as overlay. RFI is provided for both staining.

[4] = test system: monocyte subpopulation; assay: IL-1RAP cell surface staining of healthy donor monocytes; assay type: binding, human; settings: 2/5 peripheral blood and 3/5 bone marrow from healthy donors
Experimental: FIG. 23: Effect of IL-1RAP CAR T cells on healthy hematopoietic cells and efficiency of the safety suicide gene iCASP9 cassette. (A) IL-1RAP cell surface expression on peripheral blood (left) or bone marrow (right) cells from healthy donors (n=5). SSC-A/CD45+ allowed discrimination of subpopulations as lymphocytes (SSC-A low), monocytes (CD33+), granulocytes (SSC-A high), or HSCs (CD33−/CD34+). RFI was calculated from isotype staining and provided in each window. (B) Representative (1 of 3) IL-1RAP staining of whole human cord blood cells. IL-1RAP staining is provided for whole CD34+, CD34+/CD38−, and CD34+/CD38+ HSC cord blood subpopulations. […] Percentages were calculated using absolute cell number determined using Trucount™ tubes based on 5000 fluorescent-bead cytometry acquisition. […] The quantification was performed after acquiring 5000 fluorescent beads. […] Cell killing was calculated as follows: % Dead cells=[1−(absolute number of viable cells in AP1903-treated cells/absolute number of viable cells in untreated cells)]×100. […] (G) Absolute quantification of IL-1RAP CAR T cells injected in a tumor (CML KU812, i.v.) xenograft NSG model 24 h after i.p. AP1903 (white bars) treatment (n=3 mice/group). […]

B1: #E3C3: mouse anti-hIL-1RAP monoclonal antibody subclone generated by standard hybridoma technique; VH SEQ ID NO: 2, VL SEQ ID NO: 4 (antibody, V domains shown)
VH: MGWSCIILFLVATATGVNSQVQLQQPGAELMMPGASVKVSCEASGYTFTDSWMHWVKQRPGQGLEWIGAIDPSDSYTTYNQKFTGKATLSVDESSNTAYMQLSSLTSEDSAVYYCARYYSGSNYISPFPYWGQGTLVTVSA
VL: MESQIQVFVFVFLWLSGVDGDIVMTQSHKFMSTSVGDRVTITCKASLDVSTAVAWYQQKPGQSPKLLIYSASYRYTGVPDRFTGSGSGTDFTFTISSVQAEDLAVYYCQQHYSPPFTFGSGTNLEIK
modifications: Amino acid sequence of chain H (VH) of murine scFv anti-IL-1RAP; Amino acid sequence of chain K (VL) of murine scFv anti-IL-1RAP
recognition of IL-1RAP recombinant protein by ELISA [1]: recognize the IL-1RAP recombinant protein | relative fluorescence intensity (RFI) by cytometry among subclones [2]: highest relative fluorescence intensity | recognition of HMEC-1 cell surface [3]: not recognized | RFI of monocyte staining (weak staining) [4]: < 2
